US20130295010A1, “HER2 BINDING PEPTIDES LABELLED WITH A 18F - CONTAINING ORGANOSILICON COMPOUND” (priority 2010, published 2013)

Legend:
[1] = system: target-expressing SKOV3 tumors; settings: mouse, in vivo
Protocol: In vivo studies were carried out with female CD-1 nude mice (Charles River Labs, Hopkinton, Mass.) with an age range between 6 and 15 weeks. Mice were housed in a ventilated rack with food and water ad libitum and a standard 12 hour day-night lighting cycle. For xenografts, animals were injected with 100 μl of cells in PBS. Cells were implanted subcutaneously in the right hindquarter. Implantation was performed under isoflurane anesthesia. For SKOV3, between 3×10^6 to 4×10^6 cells were implanted in each mouse. Under these conditions, useable tumors (100 to 300 μg) were obtained in 3 to 4 weeks in greater than 80% of animals injected.
Mice were given tail-vein injections of ˜1 μg of ^99mTc-labeled polypeptides (˜3 μCi/1 μg). […] Three mice were euthanized at each timepoint and tissues of interest dissected and counted on a Perkin Elmer Wallac Wizard 1480 Gamma Counter. […] Urine from cages was pooled with the bladder and also counted. The remaining tissues were counted and the sum of all tissues plus urine for each animal was summed to provide the total injected dose. The % injected dose for each organ was determined based on this total, and organs were weighed for determination of the % injected dose per gram, (% ID/g). […]
Mice were given tail-vein injections of ˜1 ug of ^99mTc-labeled polypeptides (˜10 μCi/1 μg). […] Urine from cages was pooled with the bladder and also counted. […]

[2] = mouse, in vivo, iv, 3 MBq, 1.5 h
Protocol: Following intravenous injection of 3 MBq of activity (2.5 MBq for the 2 min time point), animals were sacrificed at 2, 90, 120 and 180 min post injection and retention of radioactivity was assessed in key organs.

In the case of “Z02891 (SEQ. ID No. 2) ^18F-fluorobenzyl oxime: Z02891-ONH2 (Mal-AO linker on C-terminal cysteine) conjugated with [18F]4-fluorobenzaldehyde”, the “activity in the kidneys” value [1] is reported as 0.95±0.07 ID/organ.
With “[18F]AlF-NOTA(COOH)-2-Z02891(SEQ ID No. 2) [Compound 5]” the kidney retention [2] was 70.3 % ID.
